# From patent US20050085420A1, “Method of modulating apoptosis and compositions thereof” (priority 2003, published 2005)
# Positions count from the first letter of the chain named. Names may count otherwise.
# T1: BAK-X complex (Mus musculus, UniProt O08734+Q60930)
# T1 construct: isolation of mitochondria (50 μg) from wild-type (wt) mouse embryonic fibroblasts (MEFs); endogenous in cells; host or cells: mitochondria from wt MEFs
# T1 sequence (O08734 2-209 limits assumed): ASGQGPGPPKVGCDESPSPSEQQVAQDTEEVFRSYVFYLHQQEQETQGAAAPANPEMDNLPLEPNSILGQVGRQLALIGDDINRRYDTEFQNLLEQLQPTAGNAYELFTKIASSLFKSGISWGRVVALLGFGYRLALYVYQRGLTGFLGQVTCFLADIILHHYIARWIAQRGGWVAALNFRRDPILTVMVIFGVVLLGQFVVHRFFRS
# T1 sequence (Q60930 1-295): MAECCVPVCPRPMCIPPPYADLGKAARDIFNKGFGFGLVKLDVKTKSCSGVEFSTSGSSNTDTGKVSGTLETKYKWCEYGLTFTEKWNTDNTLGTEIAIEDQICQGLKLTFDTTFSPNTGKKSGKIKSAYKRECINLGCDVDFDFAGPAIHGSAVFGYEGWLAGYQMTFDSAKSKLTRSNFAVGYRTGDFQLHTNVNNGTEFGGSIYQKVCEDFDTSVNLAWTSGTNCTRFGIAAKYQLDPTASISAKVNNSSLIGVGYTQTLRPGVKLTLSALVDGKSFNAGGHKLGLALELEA
# T2: VDAC2 (Mus musculus, UniProt Q60930)
# T2 construct: expressed in transfected cells; host or cells: vdac1 -/-, vdac3 -/- mouse fibroblasts; wt or vdac2 -/- MEFs; Bax, Bak doubly deficient MEFs (retrovirus pMIG)
# T2 sequence (Q60930 1-295): T1 sequence (Q60930 1-295)
# B1: BIM: BH3-only BCL-2 family member, retrovirally expressed (protein, UniProt O54918 1-196, looked up)
# Bcl-2-like protein 11: MAKQPSDVSSECDREGGQLQPAERPPQLRPGAPTSLQTEPQGNPDGEGDRCPHGSPQGPLAPPASPGPFATRSPLFIFVRRSSLLSRSSSGYFSFDTDRSPAPMSCDKSTQTPSPPCQAFNHYLSAMASIRQSQEEPEDLRPEIRIAQELRRIGDEFNETYTRRVFANDYREAEDHPQMVILQLLRFIFRLVWRRH
# B2: BIM-EL: BH3-only molecule BIM-EL (protein)
# chain: B1 Bcl-2-like protein 11
# B3: VDAC1: murine VDAC1 isoform, retrovirally expressed (protein)
# chain: AVPPTYADLGKSARDVFTKGYGFGLIKLDLKTKSENGLEFTSSGSANTETTKVNGSLETKYRWTEYGLTFTEKWNTDNTLGTEITVEDQLARGLKLTFDSSFSPNTGKKNAKIKTGYKREHINLGCDVDFDIAGPSIRGALVLGYEGWLAGYQMNFETSKSRVTQSNFAVGYKTDEFQLHTNVNDGTEFGGSIYQKVNKKLETAVNLAWTAGNSNTRFGIAAKYQVDPDACFSAKVNNSSLIGLGYTQTLKPGIKLTLSALLDGKNVNAGGHKLGLGLEFQA
# B4: BAD: BH3-only BCL-2 family member, retrovirally expressed (protein, UniProt Q61337 1-204, looked up)
# Bcl2-associated agonist of …: MGTPKQPSLAPAHALGLRKSDPGIRSLGSDAGGRRWRPAAQSMFQIPEFEPSEQEDASATDRGLGPSLTEDQPGPYLAPGLLGSNIHQQGRAATNSHHGGAGAMETRSRHSSYPAGTEEDEGMEEELSPFRGRSRSAPPNLWAAQRYGRELRRMSDEFEGSFKGLPRPKSAGTATQMRQSAGWTRIIQSWWDRNLGKGGSTPSQ
# B5: mIII.1: mutant tBID with BH3 mutation mIII.1, still capable of binding BAK (protein)
# chain: GSQASRSFNQGRIEPDSESQEEIIHNIARHLAQIGDEAAHNIQPTLVRQLAAQFMNGSLSEEDKRNCLAKALDEVKTAFPRDMENDKAMLIMTMLLAKKVASHAPSLLRDVFHTTVNFINQNLFSYVRNLVRNEMD
# B6: mutant tBID mIII.4 (G94E) (other, UniProt P70444 60-195, looked up)
# chain: B5 chain with G35E, A38M, A39D
# notes: domain: p15 tBID; also called m111.4 mutant; m l 11.4
# Columns and labels:
# [1] = test system: BAK-X complex; assay: DSS cross-linking of BAK-X complex in FL5.12 cells treated with death stimuli; format: cell-based; conditions: TNFα plus cyclohexamide 5 hours, etoposide (VP16) 24 hours, 10 mM DSS
# Protocol: FIG. 1B is an illustration depicting the treatment of FL5.12 cells with either TNFα plus cyclohexamide (CHX) for 5 hours (lane 3), etoposide (VP16) for 24 hours (lane 4), or deprived of IL-3 for 18 hours (lane 5), followed by incubation with 10 mM DSS. The BAK-X complex was detected in whole cell lysates by an immunoblot developed with anti-BAK antibody.
# Protein crosslinkers were used to search for a candidate protein that interacts with BAK at the mitochondria in viable cells. A ˜60 kD mobility-shifted complex immunoreactive with an antibody (Ab) to BAK was detected after treatment of purified mitochondria (FIG. 1A) or viable whole cells (FIG. 1B) with the crosslinker disuccinimidyl suberate (DSS). This presumed complex between BAK and a candidate ˜35 kD interacting protein was designated “BAK-X.” The ˜60 kD BAK-X complex was distinct in size as compared to BAK homo-oligomers detected by bismaleimidohexane (BMH) crosslinking (FIG. 1A). The same sized BAK complex was detected in multiple cell lines and in normal liver prior to death stimuli (FIG. 1C). The BAK-X complex was lost when mitochondria were treated with tBID (FIG. 1A, C) or cells were treated with death stimuli including TNFα, etoposide, or withdrawal of survival factor (FIG. 1B). Expression of BH3-only members BAD, BIM, or tBID killed cells and diminished the amount of BAK-X complex (FIG. 1D). […]
# [2] = target: T1, BAK-X complex; assay: BAK-X complex after retroviral transduction of BH3-only members in wt MEFs; format: cell-based; conditions: 24 hours following retroviral transduction, DSS
# Protocol: FIG. 1D is a photograph depicting isolated mitochondria from wt MEFs, in which the isolated mitochondria were treated with DSS 24 hours following retroviral transduction of tBID, BIM, or BAD. The BAK-X complex was detected by an immunoblot developed with an anti-BAK antibody.
# (§1) Murine vdac1, vdac2, N-terminal HA-tagged vdac2, N-terminal-HA tagged Bax or Bak, as well as wild type and mutant Bak (mBH1, W122A, G123E, R124A; mBH3, L75E) were cloned into the retroviral expression vector MSCV-IRES-GFP (pMIG). PcDNA3-tBID (wt and mutants) was described previously M. C. Wei et al., Genes Dev 14, 2060-71. (2000). Generation of amphotropic retroviruses and retroviral infection were described previously E. H. Cheng et al., Mol Cell 8, 705-11. (2001).
# Protein crosslinkers were used to search for a candidate protein that interacts with BAK at the mitochondria in viable cells. […] Wei et al., Genes Dev 14, 2060-71. (2000).
# [3] = test system: wt MEFs; assay: Cell killing by expression of BH3-only members; format: cell-based, mouse; conditions: retroviral expression
# [4] = target: T2, VDAC2; assay: Anti-HA immunoprecipitation of HA-tagged VDAC2 with BH3-only molecules; format: binding; conditions: for interaction with HA-tagged VDAC2 (co-immunoprecipitation): mitochondria, anti-HA immunoprecipitation, 1% CHAPS (or 0.2% NP40)
# Excerpt: as §1, with “(2001). Retroviral expression of each indicated protein was confirmed by immunoblot. […]” for “(2001).”
# The strength of association between BIM-EL and VDAC2 was compared to the strength of the association, if any, between BIM-EL and BAK or BAX. Mitochondria isolated from Bax, Bak doubly deficient MEFs transduced with retrovirus expressing N-terminal HA-tagged BAX, BAK, or VDAC2 were solubilized in 1% CHAPS or 0.2% NP-40 buffer, followed by anti-HA immunoprecipitation. The immunoprecipitates were analyzed by an immunoblot developed with anti-BIM. […] These findings indicate that BH3-only competition for VDAC2 frees BAK, which, in the absence of its specific inhibitor VDAC2, is prone to auto-activating homo-oligomerization. […]
# [5] = test system: Bax -/- MEFs; assay: Annexin-V cell death after retroviral expression of VDAC1 or VDAC2 in Bax -/- MEFs; format: cell-based, mouse; conditions: Bax -/- cells, retroviral expression, 1.2 μM staurosporine or 10 μg/ml etoposide, Annexin-V
# Protocol: (§2) FIG. 3A are two graphs illustrating Bax -/- or Bak -/- MEFs at 2 days following retroviral expression of VDAC1, VDAC2, or GFP (MIG vector control), wherein the Bax -/- or Bak -/- MEFs were treated with 1.2 μM staurosporine (STS). Cell death was quantitated by flow cytometric detection of Annexin-V staining at indicated time points. Values shown are mean ±1 SD of three independent experiments.
# (§3) FIG. 3B is a histogram depicting Bax -/- or Bak -/- MEFs at 2 days following retroviral expression of VDAC2 or GFP (MIG vector control), wherein the Bax -/- or Bak -/- MEFs were infected with tBID-expressing retrovirus. Cell death was quantitated by flow cytometric detection of Annexin-V staining at 24 hr. Values shown are mean ±1 SD of three independent experiments.
# as §2, with “6” for “3A”, “that depict” for “illustrating”, “10 μg/ml etoposide.” for “1.2 μM staurosporine (STS).”
# (§4) Previous studies have shown that cells doubly deficient for BAX and BAK are resistant to intrinsic death stimuli, whereas cells singly deficient for BAX or BAK are still susceptible (M. C. Wei et al., Science 292, 727-30. (2001)). As VDAC2 interacts with BAK but not BAX, the ability of VDAC2 to modulate apoptosis mediated by BAK or BAX was tested. According to one hypothesis, VDAC2 might function as an inhibitor of BAK or VDAC2 itself might function as a proapoptotic factor once released from BAK. To address these alternatives VDAC 1 or VDAC2 was expressed in Bax -/- or Bak -/- singly deficient mouse embryonic fibroblasts (MEFs) followed by treatment with staurosporine or etoposide. […] Expression of VDAC2 inhibited tBID-induced apoptosis of Bax -/- cells but not Bak -/- cells, further supporting a selective role for VDAC2 in negatively regulating BAK-dependent apoptosis (FIG. 3B).
# [6] = test system: Bak -/- MEFs; assay: Annexin-V cell death after retroviral expression of VDAC1 or VDAC2 in Bak -/- MEFs; format: cell-based, mouse; conditions: Bak -/- cells, retroviral expression, 1.2 μM staurosporine or 10 μg/ml etoposide, Annexin-V
# Protocol: as §2, §3
# as §2, with “6” for “3A”, “that depict” for “illustrating”, “10 μg/ml etoposide.” for “1.2 μM staurosporine (STS).”
# as §4
# [7] = target: T1, BAK-X complex; assay: DSS cross-linking of BAK-X complex in isolated mitochondria, anti-BAK immunoblot; format: biochemical; conditions: liver mitochondria 50 μg, 5 μl in vitro transcribed-translated mutant tBID, 30° C. 30 min
# Protocol: FIG. 1A is an illustration depicting isolation of mitochondria (50 μg) from wild-type (wt) mouse embryonic fibroblasts (MEFs). The isolated mitochondria were incubated with recombinant tBID protein (50 ng) at 30° C. for 30 min, followed by treatment with the cross-linkers disuccinimidyl suberate (DSS) (10 mM) or bismaleimidohexane (BMH) (10 mM) at room temperature for 30 minutes. Higher order BAK complexes were identified by immunoblot developed with an anti-BAK antibody.
# FIG. 1C is an illustration depicting treatment of mitochondria (50 μg) isolated from mouse liver, Bal17, Jurkat, and FL5.12 cells with 50 ng tBID protein at 30° C. for 30 min, followed by DSS cross-linking. The BAK-X complex was detected by an immunoblot developed with anti-BAK antibody.
# FIG. 1E is a photograph depicting isolated liver mitochondria (50 μg) which were incubated with 5 μl of in vitro transcribed-translated wt or mutant tBID at 30° C. for 30 min, followed by DSS cross-linking. The BAK-X complex was detected by an immunoblot developed with anti-BAK antibody. […]
# Protein crosslinkers were used to search for a candidate protein that interacts with BAK at the mitochondria in viable cells. A ˜60 kD mobility-shifted complex immunoreactive with an antibody (Ab) to BAK was detected after treatment of purified mitochondria (FIG. 1A) or viable whole cells (FIG. 1B) with the crosslinker disuccinimidyl suberate (DSS). […]
molecule,measurement,setting,value
TNFα,BAK-X complex when cells were treated with death stimuli,[1],lost
COc1cc([C@@H]2c3cc4c(cc3[C@@H](O[C@@H]3O[C@@H]5CO[C@@H](C)O[C@H]5[C@H](O)[C@H]3O)[C@H]3COC(=O)[C@H]23)OCO4)cc(OC)c1O [etoposide],BAK-X complex when cells were treated with death stimuli,[1],lost
B1,amount of BAK-X complex,[2],diminished
same,cell killing on expression,[3],killed cells
B2,strength of association with VDAC2 compared to BAX or BAK,"[4]; Bax, Bak doubly deficient MEFs with HA-tagged BAX, BAK or VDAC2, 1% CHAPS or 0.2% NP-40",associate more strongly with VDAC2 than BAX or BAK
same,interaction with HA-tagged VDAC2 (co-immunoprecipitation),[4],strong interaction
B3,apoptosis after staurosporine or etoposide,[5],no substantial effect
same,apoptosis after staurosporine or etoposide,[6],no substantial effect
B4,amount of BAK-X complex,[2],diminished
same,cell killing on expression,[3],killed cells
B5,dissociation of the BAK-X complex by mutant tBID,[7],caused dissociation
B6,dissociation of the BAK-X complex by mutant tBID,[7],not
same,interaction with HA-tagged VDAC2 (co-immunoprecipitation),[4],did not recognize VDAC2
